Measurements from article PMC9510068.

Biological target: Bac S-2P (S-2P from the baculovirus-insect cell expression system, TN-5B1-4 cells) (SARS-CoV-2)
Experiment: negative-stain EM

## Bac S-2P (S-2P from the baculovirus-insect cell expression system, TN-5B1-4 cells) (domain or fragment)
  stoichiometry N: 3
